B1: GpH7-B3 variant E269_01G/GpL16-k0 (antibody, human IgG1, kappa)
heavy: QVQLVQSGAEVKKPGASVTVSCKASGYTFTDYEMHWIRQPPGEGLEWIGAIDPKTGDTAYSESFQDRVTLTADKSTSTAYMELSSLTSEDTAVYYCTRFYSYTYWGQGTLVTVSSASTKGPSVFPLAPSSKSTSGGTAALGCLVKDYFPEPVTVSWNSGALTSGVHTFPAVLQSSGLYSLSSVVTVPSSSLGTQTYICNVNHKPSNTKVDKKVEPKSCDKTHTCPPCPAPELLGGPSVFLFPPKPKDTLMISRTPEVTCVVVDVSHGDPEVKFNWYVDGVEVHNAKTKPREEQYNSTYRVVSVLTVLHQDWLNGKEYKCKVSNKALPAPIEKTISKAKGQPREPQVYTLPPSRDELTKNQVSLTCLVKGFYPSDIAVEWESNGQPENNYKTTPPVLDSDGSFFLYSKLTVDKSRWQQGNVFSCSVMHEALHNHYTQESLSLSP
light: DIVMTQSPLSLPVTPGEPASISCQASESLVHSNRNTYLHWYLQKPGQSPQLLIYKVSNRFSGVPDRFSGSGSGTDFTLKISRVEAEDVGVYYCSQNTHVPPTFGQGTKVEIERTVAAPSVFIFPPSDEQLKSGTASVVCLLNNFYPREAKVQWKVDNALQSGNSQESVTEQDSKDSTYSLSSTLTLSKADYEKHKVYACEVTHQGLSSPVTKSFNRGEC
notes: also called Ho Ab E269_01G
B2: GpH7-A5/GpH7-B3 variant K334_18N/GpL16-k0 (antibody, human IgG1, kappa)
heavy 1: not shown
heavy 2: not shown
light: B1 light
notes: also called He Ab K334_18N
B3: GpH7-B3 variant A327_06M/GpL16-k0 (antibody, human IgG1, kappa)
heavy: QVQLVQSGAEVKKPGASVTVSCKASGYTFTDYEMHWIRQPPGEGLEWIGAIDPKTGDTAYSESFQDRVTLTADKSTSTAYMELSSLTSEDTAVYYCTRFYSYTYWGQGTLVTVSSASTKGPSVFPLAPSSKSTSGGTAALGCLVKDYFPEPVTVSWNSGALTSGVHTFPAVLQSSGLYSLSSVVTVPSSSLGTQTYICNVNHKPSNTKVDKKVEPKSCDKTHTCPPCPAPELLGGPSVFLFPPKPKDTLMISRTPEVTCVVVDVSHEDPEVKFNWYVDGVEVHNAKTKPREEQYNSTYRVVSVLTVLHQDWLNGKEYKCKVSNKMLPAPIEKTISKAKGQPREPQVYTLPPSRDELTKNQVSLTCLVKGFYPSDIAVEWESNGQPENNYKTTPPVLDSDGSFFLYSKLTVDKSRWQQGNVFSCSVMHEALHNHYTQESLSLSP
light: B1 light
notes: also called Ho Ab A327_06M
B4: GpH7-A5/GpH7-B3 variant K334_02A/GpL16-k0 (antibody, human IgG1, kappa)
heavy 1: not shown
heavy 2: not shown
light: B1 light
notes: also called He Ab K334_02A
B5: GpH7-B3 variant E269_02A/GpL16-k0 (antibody, human IgG1, kappa)
heavy: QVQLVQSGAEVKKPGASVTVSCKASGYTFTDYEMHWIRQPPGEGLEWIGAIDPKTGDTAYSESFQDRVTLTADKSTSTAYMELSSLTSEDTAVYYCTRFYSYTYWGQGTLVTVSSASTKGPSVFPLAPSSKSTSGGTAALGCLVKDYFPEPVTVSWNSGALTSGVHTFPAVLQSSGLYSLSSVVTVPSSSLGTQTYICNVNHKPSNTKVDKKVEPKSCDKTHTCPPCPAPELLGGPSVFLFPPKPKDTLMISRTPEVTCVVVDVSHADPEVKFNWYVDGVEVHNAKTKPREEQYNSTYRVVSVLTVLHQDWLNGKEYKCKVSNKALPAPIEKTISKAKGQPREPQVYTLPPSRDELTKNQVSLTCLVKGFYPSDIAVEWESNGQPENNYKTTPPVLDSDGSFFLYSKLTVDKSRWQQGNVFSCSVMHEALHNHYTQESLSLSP
light: B1 light
notes: also called Ho Ab E269_02A
B6: GpH7-A5/GpH7-B3 variant K334_15Y/GpL16-k0 (antibody, human IgG1, kappa)
heavy 1: not shown
heavy 2: not shown
light: B1 light
notes: also called He Ab K334_15Y
B7: GpH7-B3 variant A327_13S/GpL16-k0 (antibody, human IgG1, kappa)
heavy: not shown
light: B1 light
notes: also called Ho Ab A327_13S
B8: GpH7-B3 variant E269_19Q/GpL16-k0 (antibody, human IgG1, kappa)
heavy: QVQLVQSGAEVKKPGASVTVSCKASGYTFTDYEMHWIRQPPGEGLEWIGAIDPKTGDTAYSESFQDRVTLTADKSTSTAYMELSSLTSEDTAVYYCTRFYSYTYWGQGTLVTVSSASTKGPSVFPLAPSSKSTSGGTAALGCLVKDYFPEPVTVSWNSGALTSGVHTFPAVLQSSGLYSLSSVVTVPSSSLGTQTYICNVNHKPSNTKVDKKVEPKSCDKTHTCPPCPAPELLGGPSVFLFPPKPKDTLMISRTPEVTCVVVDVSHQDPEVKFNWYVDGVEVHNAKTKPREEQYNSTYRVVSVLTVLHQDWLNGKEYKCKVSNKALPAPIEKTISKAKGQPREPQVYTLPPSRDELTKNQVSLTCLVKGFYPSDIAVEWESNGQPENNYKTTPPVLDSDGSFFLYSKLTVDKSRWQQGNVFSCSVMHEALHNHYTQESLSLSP
light: B1 light
notes: also called Ho Ab E269_19Q
B9: GpH7-A5/GpH7-B3 variant S337_09D/GpL16-k0 (antibody, human IgG1, kappa)
heavy 1: not shown
heavy 2: not shown
light: B1 light
notes: also called He Ab S337_09D
B10: GpH7-B3 variant A330_05P/GpL16-k0 (antibody, human IgG1, kappa)
heavy: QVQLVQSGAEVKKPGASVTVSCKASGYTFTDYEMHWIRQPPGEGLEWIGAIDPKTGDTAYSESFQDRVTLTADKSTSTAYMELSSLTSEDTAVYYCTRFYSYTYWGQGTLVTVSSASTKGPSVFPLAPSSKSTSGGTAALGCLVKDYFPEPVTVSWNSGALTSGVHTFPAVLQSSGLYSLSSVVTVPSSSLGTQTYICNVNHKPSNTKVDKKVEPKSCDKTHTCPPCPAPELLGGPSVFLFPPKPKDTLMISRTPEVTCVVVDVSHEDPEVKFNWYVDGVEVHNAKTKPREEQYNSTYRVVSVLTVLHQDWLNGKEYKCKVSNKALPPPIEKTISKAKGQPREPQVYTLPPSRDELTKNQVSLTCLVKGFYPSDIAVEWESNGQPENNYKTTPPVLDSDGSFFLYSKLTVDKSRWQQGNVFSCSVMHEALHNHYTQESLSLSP
light: B1 light
notes: also called Ho Ab A330_05P
B11: GpH7-B3 variant E269_13S/GpL16-k0 (antibody, human IgG1, kappa)
heavy: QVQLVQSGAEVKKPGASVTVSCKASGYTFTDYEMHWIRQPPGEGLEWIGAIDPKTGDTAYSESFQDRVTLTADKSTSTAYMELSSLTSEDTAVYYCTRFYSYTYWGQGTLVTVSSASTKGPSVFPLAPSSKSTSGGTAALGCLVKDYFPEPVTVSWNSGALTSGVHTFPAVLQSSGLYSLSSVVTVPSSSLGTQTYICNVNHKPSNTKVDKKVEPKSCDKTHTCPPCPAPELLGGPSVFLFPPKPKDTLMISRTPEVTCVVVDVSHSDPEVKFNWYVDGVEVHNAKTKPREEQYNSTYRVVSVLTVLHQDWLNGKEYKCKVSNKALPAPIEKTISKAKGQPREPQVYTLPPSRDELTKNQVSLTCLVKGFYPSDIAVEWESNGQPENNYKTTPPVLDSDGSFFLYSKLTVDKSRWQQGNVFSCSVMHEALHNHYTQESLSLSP
light: B1 light
notes: also called Ho Ab E269_13S
B12: GpH7-B3 variant A327_09D/GpL16-k0 (antibody, human IgG1, kappa)
heavy: not shown
light: B1 light
notes: also called Ho Ab A327_09D
B13: GpH7-A5/GpH7-B3 variant S298_14T/GpL16-k0 (antibody, human IgG1, kappa)
heavy 1: not shown
heavy 2: not shown
light: B1 light
notes: also called He Ab S298_14T
B14: GpH7-B3 variant E269_18N/GpL16-k0 (antibody, human IgG1, kappa)
heavy: not shown
light: B1 light
notes: also called Ho Ab E269_18N
B15: GpH7-A5/GpH7-B3 variant K334_07I/GpL16-k0 (antibody, human IgG1, kappa)
heavy 1: not shown
heavy 2: not shown
light: B1 light
notes: also called He Ab K334_07I
B16: GpH7-B3 variant E269_09D/GpL16-k0 (antibody, human IgG1, kappa)
heavy: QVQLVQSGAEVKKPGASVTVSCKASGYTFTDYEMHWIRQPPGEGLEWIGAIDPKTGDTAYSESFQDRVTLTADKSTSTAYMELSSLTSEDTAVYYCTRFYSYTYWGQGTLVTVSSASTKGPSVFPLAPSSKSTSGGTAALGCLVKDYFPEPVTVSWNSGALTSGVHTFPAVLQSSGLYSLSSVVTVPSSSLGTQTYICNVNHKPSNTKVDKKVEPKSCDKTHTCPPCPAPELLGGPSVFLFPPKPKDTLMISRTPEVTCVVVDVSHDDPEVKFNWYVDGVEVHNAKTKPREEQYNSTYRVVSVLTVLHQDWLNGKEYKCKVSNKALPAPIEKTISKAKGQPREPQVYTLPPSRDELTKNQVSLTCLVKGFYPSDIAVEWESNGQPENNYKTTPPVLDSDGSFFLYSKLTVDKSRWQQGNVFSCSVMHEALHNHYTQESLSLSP
light: B1 light
notes: also called Ho Ab E269_09D
B17: GpH7-A5/GpH7-B3 variant K334_16H/GpL16-k0 (antibody, human IgG1, kappa)
heavy 1: not shown
heavy 2: not shown
light: B1 light
notes: also called He Ab K334_16H
B18: GpH7-B3 variant E269_04F/GpL16-k0 (antibody, human IgG1, kappa)
heavy: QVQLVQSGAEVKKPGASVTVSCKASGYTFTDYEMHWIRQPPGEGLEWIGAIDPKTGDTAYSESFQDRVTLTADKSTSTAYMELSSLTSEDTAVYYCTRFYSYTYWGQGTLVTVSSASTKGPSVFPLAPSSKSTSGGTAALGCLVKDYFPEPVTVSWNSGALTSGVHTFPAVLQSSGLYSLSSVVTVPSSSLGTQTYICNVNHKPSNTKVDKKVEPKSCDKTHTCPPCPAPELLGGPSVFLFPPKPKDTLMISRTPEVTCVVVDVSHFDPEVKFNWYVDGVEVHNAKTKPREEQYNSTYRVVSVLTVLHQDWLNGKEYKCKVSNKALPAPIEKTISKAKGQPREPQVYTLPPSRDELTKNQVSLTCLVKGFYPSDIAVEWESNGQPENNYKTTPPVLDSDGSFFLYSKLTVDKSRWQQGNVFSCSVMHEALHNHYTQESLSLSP
light: B1 light
notes: also called Ho Ab E269_04F
B19: GpH7-A5/GpH7-B3 variant K334_04F/GpL16-k0 (antibody, human IgG1, kappa)
heavy 1: not shown
heavy 2: not shown
light: B1 light
notes: also called He Ab K334_04F
B20: GpH7-B3 variant E269_15Y/GpL16-k0 (antibody, human IgG1, kappa)
heavy: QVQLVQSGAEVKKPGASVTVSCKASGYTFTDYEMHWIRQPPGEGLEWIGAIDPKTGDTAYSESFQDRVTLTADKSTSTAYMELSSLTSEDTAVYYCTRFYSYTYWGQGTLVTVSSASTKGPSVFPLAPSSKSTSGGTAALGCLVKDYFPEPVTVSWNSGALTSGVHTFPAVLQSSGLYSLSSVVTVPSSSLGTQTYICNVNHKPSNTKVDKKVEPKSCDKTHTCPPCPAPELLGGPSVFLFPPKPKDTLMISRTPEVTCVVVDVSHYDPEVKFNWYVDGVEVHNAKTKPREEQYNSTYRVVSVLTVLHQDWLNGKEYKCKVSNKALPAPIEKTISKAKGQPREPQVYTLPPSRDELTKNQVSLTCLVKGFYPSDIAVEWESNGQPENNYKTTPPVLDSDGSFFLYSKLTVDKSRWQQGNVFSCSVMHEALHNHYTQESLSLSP
light: B1 light
notes: also called Ho Ab E269_15Y
B21: GpH7-B3 variant E269_07I/GpL16-k0 (antibody, human IgG1, kappa)
heavy: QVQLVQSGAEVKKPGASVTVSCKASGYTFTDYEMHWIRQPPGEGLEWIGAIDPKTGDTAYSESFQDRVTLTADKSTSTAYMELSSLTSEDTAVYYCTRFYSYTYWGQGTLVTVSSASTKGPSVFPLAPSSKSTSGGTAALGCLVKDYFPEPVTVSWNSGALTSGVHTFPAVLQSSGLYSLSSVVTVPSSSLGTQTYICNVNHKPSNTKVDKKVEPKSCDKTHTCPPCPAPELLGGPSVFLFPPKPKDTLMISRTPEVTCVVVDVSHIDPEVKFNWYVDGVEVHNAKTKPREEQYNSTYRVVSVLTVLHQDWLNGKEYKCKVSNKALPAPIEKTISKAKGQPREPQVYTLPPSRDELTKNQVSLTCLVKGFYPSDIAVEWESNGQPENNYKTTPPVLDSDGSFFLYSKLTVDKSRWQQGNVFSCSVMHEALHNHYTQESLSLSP
light: B1 light
notes: also called Ho Ab E269_07I
B22: GpH7-A5/GpH7-B3 variant K334_19Q/GpL16-k0 (antibody, human IgG1, kappa)
heavy 1: not shown
heavy 2: not shown
light: B1 light
notes: also called He Ab K334_19Q
B23: GpH7-A5/GpH7-B3 variant S337_18N/GpL16-k0 (antibody, human IgG1, kappa)
heavy 1: not shown
heavy 2: not shown
light: B1 light
notes: also called He Ab S337_18N
B24: GpH7-B3 variant A327_10E/GpL16-k0 (antibody, human IgG1, kappa)
heavy: not shown
light: B1 light
notes: also called Ho Ab A327_10E
B25: GpH7-A5/GpH7-B3 variant K334_08L/GpL16-k0 (antibody, human IgG1, kappa)
heavy 1: not shown
heavy 2: not shown
light: B1 light
notes: also called He Ab K334_08L
B26: GpH7-B3 variant A330_11K/GpL16-k0 (antibody, human IgG1, kappa)
heavy: not shown
light: B1 light
notes: also called Ho Ab A330_11K
B27: GpH7-A5/GpH7-B3 variant K334_05P/GpL16-k0 (antibody, human IgG1, kappa)
heavy 1: not shown
heavy 2: not shown
light: B1 light
notes: also called He Ab K334_05P

Legend:
FcγRIa = target: T1, FcγRIa (human, UniProt P12314 16-292); assay: SPR (Biacore); Ho Ab relative to HoCon Ab = 100
T1 construct: extracellular domain; also called FcgRI; 1a
T1 sequence (P12314 16-292): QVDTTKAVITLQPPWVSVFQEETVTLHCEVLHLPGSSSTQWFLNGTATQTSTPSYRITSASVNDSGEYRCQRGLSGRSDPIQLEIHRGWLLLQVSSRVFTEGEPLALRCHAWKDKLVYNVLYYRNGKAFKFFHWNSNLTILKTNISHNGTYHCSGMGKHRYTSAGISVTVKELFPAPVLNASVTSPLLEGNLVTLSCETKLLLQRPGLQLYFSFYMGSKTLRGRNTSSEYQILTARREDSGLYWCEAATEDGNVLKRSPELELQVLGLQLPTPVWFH
Protocol: Analysis of interaction between objective antibody and the FcγR was carried out using Biacore T100 (GE Healthcare). HBS-EP+ (GE Healthcare) was used as the running buffer, and the measurement temperature was set to 25° C. Chips produced by immobilizing the antigen peptide by the amine coupling method to a Series S Sencor Chip CM5 (GE Healthcare), or alternatively, chips produced by allowing preliminarily biotinylated antigen peptides to interact with and immobilize onto a Series S Sensor Chip SA (certified) (GE Healthcare) were used. Antibodies of interest were captured onto an antigen peptide-immobilized chip, and allowed to interact to each FcγR diluted with running buffer. To regenerate and repeatedly use the chip, the antibodies captured on the chip were washed off by reacting 10 mM glycine-HCl, pH 1.5.

[1] = target: T2, FcγRIIIa extracellular domain with C-terminal His tag (human, UniProt P08637 17-208); assay: SPR Biacore, captured antibody, FcγR analyte, relative binding
T2 construct: extracellular domain; also called FcgRIIIa; 3a; not shown: His tag attached to the C terminus
T2 sequence (P08637 17-208): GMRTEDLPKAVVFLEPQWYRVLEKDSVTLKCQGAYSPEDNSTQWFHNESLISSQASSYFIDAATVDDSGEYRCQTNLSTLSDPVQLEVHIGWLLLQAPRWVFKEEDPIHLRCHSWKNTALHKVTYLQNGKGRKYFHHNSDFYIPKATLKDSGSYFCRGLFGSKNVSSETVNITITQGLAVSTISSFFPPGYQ
Outline: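 Antibodies were captured on antigen-peptide chips (amine-coupled to CM5, or biotinylated peptide on SA), then FcγR diluted in HBS-EP+ running buffer was injected as analyte at 25° C. Chips were regenerated with 10 mM glycine-HCl, pH 1.5 between cycles.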

Row | Binder | Ho/Con_1a (FcγRIa) | He/Con_3a [1]
1 | B1 | 97.4 % of control | –
2 | B2 | – | 136 % of HeCon Ab GpH7-A5/GpH7-B3/GpL16-k0 (=100)
3 | B3 | 93.1 % of control | –
4 | B4 | – | 147 % of HeCon Ab GpH7-A5/GpH7-B3/GpL16-k0 (=100)
5 | B5 | 96.2 % of control | –
6 | B6 | – | 141 % of HeCon Ab GpH7-A5/GpH7-B3/GpL16-k0 (=100)
7 | B7 | 86.1 % of control | –
8 | B8 | 99.6 % of control | –
9 | B9 | – | 110 % of HeCon Ab GpH7-A5/GpH7-B3/GpL16-k0 (=100)
10 | B10 | 84.4 % of control | –
11 | B11 | 95.9 % of control | –
12 | B12 | 102 % of control | –
13 | B13 | – | 113 % of HeCon Ab GpH7-A5/GpH7-B3/GpL16-k0 (=100)
14 | B14 | 92.7 % of control | –
15 | B15 | – | 151 % of HeCon Ab GpH7-A5/GpH7-B3/GpL16-k0 (=100)
16 | B16 | 106 % of control | –
17 | B17 | – | 134 % of HeCon Ab GpH7-A5/GpH7-B3/GpL16-k0 (=100)
18 | B18 | 102 % of control | –
19 | B19 | – | 148 % of HeCon Ab GpH7-A5/GpH7-B3/GpL16-k0 (=100)
20 | B20 | 100 % of control | –
21 | B21 | 97.1 % of control | –
22 | B22 | – | 136 % of HeCon Ab GpH7-A5/GpH7-B3/GpL16-k0 (=100)
23 | B23 | – | 104 % of HeCon Ab GpH7-A5/GpH7-B3/GpL16-k0 (=100)
24 | B24 | 98.8 % of control | –
25 | B25 | – | 143 % of HeCon Ab GpH7-A5/GpH7-B3/GpL16-k0 (=100)
26 | B26 | 94.1 % of control | –
27 | B27 | – | 134 % of HeCon Ab GpH7-A5/GpH7-B3/GpL16-k0 (=100)
